Measured values as given in article PMC12785664, “Structure-Functional Examination of Cysteine Synthase A (CysK) from Limosilactobacillus reuteri LR1” (International Journal of Molecular Sciences, 2025).

Experiments:
[1] = target: T1, LreCysK (cysteine synthase A from Limosilactobacillus reuteri LR1, His-tag at N-terminus) (Limosilactobacillus reuteri, UniProt A0ABF7PP24); test: differential scanning calorimetry, with versus without added PLP; assay type: binding; details: 1.0 mM PLP, 0.1 M Na-phosphate pH 7.0, 1 °C/min; two calorimetric domains, domain 1 given
T1 construct: gene cysK
T1 sequence (A0ABF7PP24 2-307): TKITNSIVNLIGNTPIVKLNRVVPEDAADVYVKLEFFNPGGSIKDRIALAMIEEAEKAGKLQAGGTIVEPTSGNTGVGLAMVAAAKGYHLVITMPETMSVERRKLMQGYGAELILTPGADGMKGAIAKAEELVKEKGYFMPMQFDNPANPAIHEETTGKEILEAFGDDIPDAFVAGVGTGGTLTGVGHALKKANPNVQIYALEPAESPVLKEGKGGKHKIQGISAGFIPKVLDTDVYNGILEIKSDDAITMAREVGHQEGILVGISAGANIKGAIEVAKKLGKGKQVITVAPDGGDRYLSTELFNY
Description: differential scanning calorimetry, with versus without added PLP on LreCysK (cysteine synthase A from Limosilactobacillus reuteri LR1, His-tag at N-terminus)

[2] = target: Cysteine synthase A (CysK) from Limosilactobacillus reuteri LR1 with His-tag on the N-terminus (Limosilactobacillus reuteri LR1); test: SEC; analytical gel filtration, HiLoad 16/600 Superdex 200 pg, 1 mg of sample, calibrated with Gel Filtration Calibration Kit HMW; monomer to dimer
[3] = system: CC(=O)OC[C@H](N)C(=O)O; test: purified protein; details: saturating sulfide, 5 µM PLP, 10 mM HEPES pH 7.5
Description: HILIC HPLC determination of cysteine, nonlinear regression on LreCysK (cysteine synthase A from Limosilactobacillus reuteri LR1, His-tag at N-terminus)

With `Cc1ncc(COP(=O)(O)O)c(C=O)c1O` [Pyridoxal-5 phosphate] the “Tm, °C” value [1] was 80.1 °C.

With “Cysteine synthase A (CysK) from Limosilactobacillus reuteri LR1 with His-tag on the N-terminus (enzyme)” the stoichiometry N [2] was 2.

“LreCysK (cysteine synthase A from Limosilactobacillus reuteri LR1, His-tag at N-terminus) (Limosilactobacillus reuteri)” showed a Km [3] of 3.8 ± 0.6 mM, a kcat [3] of 681 ± 45 s⁻¹ and a kcat/Km [3] of 179000 M⁻¹ s⁻¹.
